Biological target: vitreous collagen fibrils (rabbit), in the collagen-containing pellet (rabbit (endogenous in rabbit vitreous))
Experiment: co-sedimentation; vitreous of uninjected rabbit eyes digested with hyaluronan lyase (24 h, 37 °C), centrifuged 13 000g 30 min; opticin in supernatant and collagen-containing pellet quantified by SRM-MS

endogenous rabbit opticin (natural protein)
percent of opticin in the collagen-containing pellet: 6%
